Assay: yeast display, Sf9 membrane polyspecificity reagent, FACS + sequencing; frameworks hold sequencing errors
How it was run: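 After 36–48 hours of galactose induction, yeast (Saccharomyces cerevisiae BJ5465) displaying a synthetic nanobody library were stained at 4 °C for 1 hour with 10% biotinylated, detergent-solubilized Sf9 membrane reagent. Streptavidin microbeads enriched the stained cells before FACS sorting into low and high (top ~1%) gates on anti-HA and streptavidin fluorescence. Each clone's polyreactivity label reflects its gate of origin.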

| Sequence | polyreactivity (PSR sort gate) |
| --- | --- |
| QVQLVESGGGLVQAGGSLRLSCAASGFIFPGYTRGWYRQAPGKEWELVAAISRGSSTYYADSVKGRFTISRDNAKNTVYLQMNSLKPEDTSVYYCNTRVYAITLYDYWGQGTQVTVSS | low polyreactivity |
| QVHLVESGGGLDQAGGTLRLSCAATGSIIQSYAMGWYRQAPGKESELVAAITARGTSTYYADSVKGRFTISRDNAKNTVYLQMNSLKPEETAVYYCTTDRSRSPGDVECQSDIKRDYWGQGTQVTVSS | low polyreactivity |
| QVQLVESGGGLVQAGGSLRLSCAASGSTLFFYTMGWYRQAPGKERELVAAITRGGSTYYADSVKGRFTISRDNAKNTVYLQLNSLKPEDTAVYYCAAPYVRPKKVYNYDYWGQGTQVTVSS | high polyreactivity |
| QVQLVESGGGLVQAGGSLRLSCAASGRIFDRNAMGWYRQAPGKERELVAAIRRGGSTNYADSVKGRFTISRDNAKNTVYLQMNSLKPEDTAVYYCNTVYSEYYIAYDYWGQGTQVTVSS | high polyreactivity |
| QVQLVESGGGLVQAGGSLRLSCAASGITFDYYDMGWYRQAPGKERELVATITSDGSTTYADSVKGRFTISRDNAKNTVYLQMNSLKPEDTAVYYCAAALHIYSYFYITYDYWGQGTQVTVSS | high polyreactivity |
| QVQLVESGGGLVQAGGSLRLSCAASGSTLGAYAMGWYRQAPGKERELVAAISRSGGNTYYADSVKGRFTISRDNAKNTVYLQMNSLKPEDTAVYYCAAVRLYRYDYWGQGTQVTVSS | low polyreactivity |
| QVQLVESGGGLVQAGGSLRLTCAASGIIFGHYAMGWYRQAPGKERELVAAITASSGNTYYADSVKGRFTISRDNAKNTVYLQMNSLKPEDTAVYYCAAVSYSSYRYDYWGQGTQVTVSS | high polyreactivity |
| QVQLVESGGGLVQAGGSLRLSCAASGFTFPWYAMGWYRQAPGKERELVASISYRGDSTYYADSVKGRFTISRDNAKNTVYLQMNSLKPEDTAVYYCNTRLASYYLPGFDYWGQGTQVTVSS | low polyreactivity |
| QVQLVESGGGLVQAGGSLRLSCAASGPTFPVKSMGWYRQAPGKERELVAAISWRDGRTYYADSVKGRFTISRDNAKNTVYLQMNSLKPEDTAVYYCNVVKRRSDWGMDYWGQGTQVTVSS | high polyreactivity |
| QVHLVESGGGLVQAGGSLSLSCAASGLNFRTYAMGWYRQAPGKERELVAAISSSGGSTYYADSVKGRFTISRDNAKNTVYLQMNSLKPEDTAVYYCNVGSRRRRYLDRYEYWGQGTQVTVSS | high polyreactivity |
| QVQLVESGGVLVQEGGSLRLSCAASGRIFQIYAMGWYRQAPGKERELFAAISGSTSYADSVKGRFTISRDNAKNTVYLQMNSLKPEDTAVYYCAKRVVRGKVDYWGQGTQVTVSS | low polyreactivity |
| QVQLVESGGGLVQAGGSLRLSCAASGSIFYINAMGWYRQAPGKERELVASISGGGGSTYYADSVKGRFTISRDNAKNTVYLQMNSLKPEDTAVYYCAARYRVYYLAGYEYWGQGTQVTVSS | high polyreactivity |
| QVQLVETGGGLVQAGGSLRLSCAASGSIFGAYAMGWYRQAPGKERELVAAITWTAGSTFYADSVKGRFTISRDNAKNTVYLQMNSLKPEDTAVYYCAAEYYTETQWSRYYRYYYWGQGTQVTVSS | low polyreactivity |
| QVQLVESGGGLVQAGRSLRLSCAASGSTFPWYTMGWYRQAPGKERELVAAIDGSAGDTYYADSVKGRFTISRDNAKNTVYLQMNSLKPEDTAVYYCATRTSRWGYLHYDYWGQGTQVTVSS | low polyreactivity |
| QVQLVESGGGLVQAGGSLRLSCAASGSIFVYYAMGWYRQAPGKERELVAAITWSSGRTYYADSVKGRFTISRDNAKNTVYLQMNSLKPEDTAVYYWNVLTRYYLGYDYWGQGTQVTVSS | high polyreactivity |
| QVQLVESGGGLVQAGGSLRLSCAASGSTFVGYAMGWYRQAPGKERELVAAISGRGGSTYYADSVKGRFTISRDNAKNTVYLQMNSLKPEDTAVYYCNARRRKTVPNYIYNYWGQGTQVTVSS | high polyreactivity |
| QVQLVESGGGLVQAGGSLRLSCAASGSIFVGNAMGWYRQAPGKERELVAAISRSGGRTYYADSVKRRFTISRDNAKITVYLQMNSLKPEHTAVYYCNAYGWEQLQMDSWGQGTQVTVSS | high polyreactivity |

From the nanobody polyreactivity screen of Harvey et al. (2022)
